Positions count from the first letter of the chain named.
Columns and labels:
Conditions in all cases: protein: recombinant; tags: C-terminal poly-His (pET21); label: 5' 32P; single strand
PhrB Y430F = target: T1, PhrB Y430F (Agrobacterium fabrum, UniProt A9CH39 1-507, Y430F); assay: EMSA; reduced FAD, darkness; […] (buffer 1: 50 mM Tris-HCl pH 7.0, 1 mM EDTA, 100 mM NaCl, 5% glycerol, 20 mM DTT); or buffer 2: pH 7.5, 10 mM DTT; […]
T1 sequence: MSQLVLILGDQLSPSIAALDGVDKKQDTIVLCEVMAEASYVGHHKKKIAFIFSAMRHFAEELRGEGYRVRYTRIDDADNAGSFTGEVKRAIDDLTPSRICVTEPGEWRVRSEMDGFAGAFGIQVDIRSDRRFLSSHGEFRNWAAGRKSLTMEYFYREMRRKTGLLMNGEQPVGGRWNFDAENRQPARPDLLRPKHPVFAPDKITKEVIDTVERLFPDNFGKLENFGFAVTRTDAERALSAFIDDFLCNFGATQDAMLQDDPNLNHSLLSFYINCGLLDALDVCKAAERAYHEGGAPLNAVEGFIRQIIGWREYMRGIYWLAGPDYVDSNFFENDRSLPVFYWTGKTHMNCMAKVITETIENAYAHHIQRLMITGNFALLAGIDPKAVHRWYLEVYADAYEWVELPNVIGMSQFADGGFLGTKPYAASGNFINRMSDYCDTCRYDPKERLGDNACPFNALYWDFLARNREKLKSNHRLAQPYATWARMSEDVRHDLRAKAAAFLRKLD

PhrB Y460F = target: T2, PhrB Y460F (Agrobacterium fabrum, UniProt A9CH39 1-507, Y460F); assay: as above
T2 sequence: T1 sequence with F430Y, Y460F

PhrB Y424F = target: T3, PhrB Y424F (Agrobacterium fabrum, UniProt A9CH39 1-507, Y424F); assay: as above
T3 sequence: T1 sequence with Y424F, F430Y

PhrB = target: T4, PhrB (Agrobacterium fabrum, UniProt A9CH39 1-507); assay: EMSA; reduced FAD, darkness; EMSA in repair buffer (buffer 1: 50 mM Tris-HCl pH 7.0, 1 mM EDTA, 100 mM NaCl, 5% glycerol, 20 mM DTT; or buffer 2: pH 7.5, 10 mM DTT; which one not stated), 28 nM DNA, 10% TBE-PAGE at 4 C in darkness
T4 sequence: T1 sequence with F430Y

Binder | Kd (PhrB Y430F) [µM] | Kd (PhrB Y460F) [µM] | Kd (PhrB Y424F) [µM] | Kd (PhrB) [µM]
CATAGGTTGGCATA (ssDNA, (6-4) photoproduct at T7-T8 (the only TT; 254 nm UV, HPLC purified)) [EMSA_1 (6-4)TT photoproduct] | 0.027 ± 0.003 | 0.025 ± 0.003 | 18 ± 2 | 0.013 ± 0.002
CATAGGTTGGCATA (ssDNA) [EMSA_1 undamaged] | 27 ± 2 | 25 ± 3 | 28 ± 3 | 25 ± 3
